# Key:
# [1] = target: CD40 (binding assays of Example 4; species and form not stated) (UniProt P25942 21-193, limits assumed); assay: antigen binding, method not stated
# cynomolgus 4-1BB = cynomolgus 4-1BB (cynomolgus); assay: SPR
# [2] = target: T1, human CD40 on cells (HEK293 transfectants, HEK-Blue CD40 reporter cells, human B cells, moDC, PBMC) (human, UniProt P25942 21-277); assay: cell-based or functional assay
# [3] = target: T1, human CD40 on cells (HEK293 …); assay: cell-based or functional assay; remark: listed apart in the source
# [4] = target: T2, MSLN (Table 10-1; species and form not stated); assay: antigen binding, method not stated
# T2 construct: also called mesothelin
# T2 sequence (Q13421 37-606): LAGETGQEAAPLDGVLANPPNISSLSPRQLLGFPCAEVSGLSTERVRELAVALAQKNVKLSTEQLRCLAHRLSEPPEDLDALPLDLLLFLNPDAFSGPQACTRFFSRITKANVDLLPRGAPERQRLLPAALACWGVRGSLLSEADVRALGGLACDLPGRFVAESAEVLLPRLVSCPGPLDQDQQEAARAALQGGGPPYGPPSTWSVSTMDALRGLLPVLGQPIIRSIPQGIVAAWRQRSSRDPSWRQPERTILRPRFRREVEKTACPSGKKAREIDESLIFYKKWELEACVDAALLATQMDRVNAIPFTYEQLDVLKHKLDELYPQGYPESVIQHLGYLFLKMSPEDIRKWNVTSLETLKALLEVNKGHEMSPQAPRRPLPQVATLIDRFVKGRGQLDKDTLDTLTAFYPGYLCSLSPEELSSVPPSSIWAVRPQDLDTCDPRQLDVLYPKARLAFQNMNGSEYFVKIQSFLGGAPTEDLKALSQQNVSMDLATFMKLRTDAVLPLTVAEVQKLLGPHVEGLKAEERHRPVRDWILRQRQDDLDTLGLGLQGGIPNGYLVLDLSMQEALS
# CD40 (binding assays of Example 4; species and form not stated), sequence (P25942 21-193 limits assumed): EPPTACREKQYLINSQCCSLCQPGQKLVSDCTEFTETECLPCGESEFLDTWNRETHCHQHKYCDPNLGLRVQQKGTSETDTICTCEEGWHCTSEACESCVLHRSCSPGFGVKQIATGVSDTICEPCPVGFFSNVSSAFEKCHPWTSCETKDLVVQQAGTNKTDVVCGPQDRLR
# T1 sequence (P25942 21-277 limits assumed): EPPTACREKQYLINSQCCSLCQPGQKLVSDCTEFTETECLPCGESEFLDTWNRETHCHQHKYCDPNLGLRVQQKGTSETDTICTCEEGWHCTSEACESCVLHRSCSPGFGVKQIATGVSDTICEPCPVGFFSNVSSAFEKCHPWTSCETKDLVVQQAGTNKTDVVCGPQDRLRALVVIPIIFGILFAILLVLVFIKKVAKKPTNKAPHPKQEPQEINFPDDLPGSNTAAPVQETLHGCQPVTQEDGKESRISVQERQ
binder,measurement,setting,value
"B39 (bispecific antibody, IgG2, huAb9-5 (VH-VL) N-terminal, HuAM15 (VH-VL) C-terminal, huIgG2) EVQLQESGPGLVKPSETLSLTCTVSGYSITSNYYWNWIRQPPGKGLEWMGYIRYDGSNNYNPSLKNRVTISRDTSKNQFSLKLSSVTAADTAVYYCARLDYWGQGTTVTVSSDLSGGGGSGGGGSGGGGSGGGGSTGDAVMTQTPLSLSVTPGQPASISCRSSQSLENTNGNTFLNWYLQKPGQSPQLLIYRVSNRFSGVPDRFSGSGSGTDFTLKISRVEAEDVGVYYCLQVTHVPFTFGQGTKLEIKRVERKSSVECPPCPAPPVAGPSVFLFPPKPKDTLMISRTPEVTCVVVDVSHEDPEVQFNWYVDGVEVHNAKTKPREEQFNSTFRVVSVLTVVHQDWLNGKEYKCKVSNKGLPAPIEKTISKTKGQPREPQVYTLPPSREEMTKNQVSLTCLVKGFYPSDIAVEWESNGQPENNYKTTPPMLDSDGSFFLYSKLTVDKSRWQQGNVFSCSVMHEALHNHYTQKSLSLSPGKVDGASSPVNVSSPSVQDIEVQLVQSGAEVKKPGASVKVSCKASGDTFKRYYVHWVRQAPGQGLEWMGIINPSGVSTTYAQKFQGRVTMTRDTSTSTVYMELSSLRSEDTAVYYCAEVRGSGFNYFGMDVWGQGTLVTVSSDLSGGGGSGGGGSGGGGSGGGGSTGSYELTQPPSVSVSPGQTASITCSGDKLGDKYASWYQQKPGQSPVLVIYQDNRRPSGIPERFSGSNSGNTATLTISGTQAMDEADYYCQAWDSDTYVFGTGTKVTVLGQ",EC50,[1],0.5 µg/mL
"TABBY107-rIgG1 (antibody, V domains shown, Rat IgG1, kappa) VH: QVKLVQSGAALVKPGASVKMSCKASDYTFNDYWVSWVKQRHGESLEWIGEIYPNSGATNFNGKFRGKATLTVDNPTSTAYMELSRLTSEDSAIYYCTREYTRDWFAYWGQGTLVTVSS VL: DVVLTQTPSILSATIGQSVSISCRSSQSLLDSDGNTYLYWFLQRPGQSPQRLIYLVSNLGSGVPNRFSGSGSGTDFTLKISGVEAEDLGIYYCMQPTHAPYTFGAGTKLELK",Kd,cynomolgus 4-1BB,0.36 nM
same,koff,cynomolgus 4-1BB,0.00013 s⁻¹
same,kon,cynomolgus 4-1BB,350000 M⁻¹ s⁻¹
"CF1 (bispecific antibody, human IgG1, lambda) heavy: not shown light: SYELTQPPSVSVSPGQTASITCSGDKLGDKYASWYQQKPGQSPVLVIYQDNRRPSGIPERFSGSNSGNTATLTISGTQAMDEADYYCQAWDSDTYVFGTGTKVTVLGQPKAAPSVTLFPPSSEELQANKATLVCLISDFYPGAVTVAWKADSSPVKAGVETTTPSKQSNNKYAASSYLSLTPEQWKSHRSYSCQVTHEGSTVEKTVAPTECS","Max. IL-12p70, dendritic cells",[2],100 pg/mL
"CF3 (bispecific antibody, human IgG1, lambda) heavy: not shown light: SYELTQPPSVSVSPGQTASITCSGDKLGDKYASWYQQKPGQSPVLVIYQDNRRPSGIPERFSGSNSGNTATLTISGTQAMDEADYYCQAWDSDTYVFGTGTKVTVLGQPKAAPSVTLFPPSSEELQANKATLVCLISDFYPGAVTVAWKADSSPVKAGVETTTPSKQSNNKYAASSYLSLTPEQWKSHRSYSCQVTHEGSTVEKTVAPTECS","Max. IL-12p70, dendritic cells",[2],75 pg/mL
"TABBY106-rIgG1 (antibody, V domains shown, Rat IgG1, lambda) VH: QVQLQQSGAELAKPGTSVKLSCKASGYTFTSYYIYWVKQRPGQGLEWIGNIWPGNGGTFYGEKFMGKATFTADTSSSTAYMLLGSLTPEDSAYYFCARRPDYSGDDYFDYWGQGVLVTVSS VL: QVVLTQPKSVSTSLKSTVKLSCKLNSGNIGSYYVHWYQQHAGRSPTTMIYRDDKRPDGVPDRFSGSIDSSSNSAFLTINNVQTEDDAIYFCHSYDSTITPVFGGGTKLTVL",Kd,cynomolgus 4-1BB,18 nM
same,koff,cynomolgus 4-1BB,0.022 s⁻¹
same,kon,cynomolgus 4-1BB,1.2e+06 M⁻¹ s⁻¹
"huAb8-1 (antibody, human IgG1, V domains shown) VH: EVQLVQSGAEVKKPGSSVKVSCKASGYTFTDYYINWVRQAPGQGLEWIGWIFPGSGSVYCNEQFKGRATLTVDRSTSTAYMELSSLRSEDTAVYFCASSLGKFAYWGQGTLVTVSS VL: DIQMTQSPSSLSASVGDRVTITCKASQSVVTAVAWYQQKPGKSPKLLIYSASNRYTGVPSRFSGSGSGTDFTLTISSLQPEDFATYFCQQYSSYPYTFGGGTKVEIK",Maximal activation (OD655),[3],0.45 OD655
same,EC50,[1],0.4 µg/mL
"huAb9-5 (antibody, human IgG1, kappa, human IgG1, kappa) heavy: not shown light: DAVMTQTPLSLSVTPGQPASISCRSSQSLENTNGNTFLNWYLQKPGQSPQLLIYRVSNRFSGVPDRFSGSGSGTDFTLKISRVEAEDVGVYYCLQVTHVPFTFGQGTKLEIKRTVAAPSVFIFPPSDEQLKSGTASVVCLLNNFYPREAKVQWKVDNALQSGNSQESVTEQDSKDSTYSLSSTLTLSKADYEKHKVYACEVTHQGLSSPVTKSFNRGEC",Maximal activation (OD655),[3],0.67 OD655
same,EC50,[1],0.2 µg/mL
"LB-1 (bispecific antibody, mouse IgG1, 1C10 scFv (VH-VL), murine IgG1 hinge-CH2-CH3, MOR06626 scFv (VH-VL)) EVQLVESGGGLVQPGRSLKLSCAASGFTFSNYDMAWVRQAPTKGLEWVASISPSGGRTYYRDSVKGRFTVSRDNAKSTLYLQMDSLRSEDTATYYCARHDGSYFDYWGQGVMVTVSSDLSGGGGSGGGGSGGGGSGGGGSTGDTVLTQSPALAVSPGERVTISCRASESVSTLMHWYQQKPGQQPKLLIYLASHLESGVPARFSGSGSGTDFTLTIDPVEADDTATYYCQESWNDPWTFGGGTKLELKRLEVPRDSGSKPCICTVPEVSSVFIFPPKPKDVLTITLTPKVTCVVVDISKDDPEVQFSWFVDDVEVHTAQTQPREEQFNSTFRSVSELPIMHQDWLNGKEFKCRVNSAAFPAPIEKTISKTKGRPKAPQVYTIPPPKEQMAKDKVSLTCMITDFFPEDITVEWQWNGQPAENYKNTQPIMDTDGSYFVYSKLNVQKSNWEAGNTFTCSVLHEGLHNHHTEKSLSHSPGKVDGASSPVNVSSPSVQDIQVQLVQSGAEVKKPGASVKVSCKASGYTFTGNYINWVRQAPGQGLEWMGIINPTKGWTLYAQKFQGRVTMTRDTSISTAYMELSSLRSEDTAVYYCARWHHGTWIFDYWGQGTLVTVSSDLSGGGGSGGGGSGGGGSGGGGSTGDIVLTQPPSVSGAPGQRVTISCSGSSSNIGSNYVSWYQQLPGTAPKLLIYNDNQRPSGVPDRFSGSKSGTSASLAITGLQSEDEADYYCSTYDRRTFSVFGGGTKLTVLG",EC50,[4],1.39 µg/mL
"anti-MSLN antibody (MOR06626 mIgG1) (antibody, V domains shown) VH: QVQLVQSGAEVKKPGASVKVSCKASGYTFTGNYINWVRQAPGQGLEWMGIINPTKGWTLYAQKFQGRVTMTRDTSISTAYMELSSLRSEDTAVYYCARWHHGTWIFDYWGQGTLVTVSS VL: DIVLTQPPSVSGAPGQRVTISCSGSSSNIGSNYVSWYQQLPGTAPKLLIYNDNQRPSGVPDRFSGSKSGTSASLAITGLQSEDEADYYCSTYDRRTFSVFGGGTKLTVLG",EC50,[4],0.06 µg/mL
